Measured values published in PMC7765500, “Siderophore Scaffold as Carrier for Antifungal Peptides in Therapy of Aspergillus fumigatus Infections” (Journal of Fungi, 2020).
Values after ≈ are worked out from the molar mass of the structure shown. Where two headings read alike, the source gives them in different places. Square brackets hold non-standard residues; d marks the D form. Peptide text beside a SMILES is read from it. Orn(N5-OH,N5-Ac) = CC(=O)N(O)CCC[C@H](N)C(=O)O

Columns and labels:
[1] = assay type: physicochemical; details: pH 7.4
Description: Aliquots of 50 µL of ^68Ga-labelled conjugate (~5 µM) were added to 450 µL of phosphate-buffered saline pH 7.4 (PBS) and 500 µL of Octanol into a 1.5 mL Eppendorf tube. The mixture was vigorously shaken for 20 min at 1400 rpm in a standard vortex (MS 3, IKA, Staufen, Germany) and hereafter, 200 µL of each phase removed and measured in a gamma counter (2480 automatic gamma counter Wizard2 3’’, Perkin Elmer, Waltham, MA, USA) LogD was calculated as the ratio of octanol/water phase using Excel. (n = 3, six technical replicates)

A. fumigatus [2] = experiment: Uptake assay of 68Ga-labelled conjugates in A. fumigatus; assay type: cell-based, Aspergillus fumigatus; details: iron-depleted AMM, 45 min, 37 °C
Description: Assays were performed as previously described. Briefly, uptake and competition assays were performed with A. fumigatus in iron-depleted and iron-replete Aspergillus minimal media (AMM), using a 96-well MultiScreen Filter Plates HTS (1 μm glass fiber filter, Merck Millipore, Darmstadt, Germany). Compounds were incubated for 45 min at 37 °C and filters measured in a gamma counter. Competition assays were performed in the same way except for pre-incubation with the iron-containing antifungal conjugates for 15 min, resulting in a competition at the MirB transporter to show specific binding to MirB.

in vivo = experiment: in vivo; design: species or system BALB/c mice; details: mouse, iv; for tissue uptake: female, BALB/c, 0.4 nmol, total radioactivity, Kidney uptake
Description: Stability test and biodistribution were conducted in 4–6 weeks-old female BALB/c mice (in-house breed, ZVTA Innsbruck). ^68Ga-labelled conjugates, dissolved in PBS (Ph. Eur. pH 7.4) and pH adjusted to pH 6.5 with sodium acetate, were injected via lateral tail vein using approximately 0.4 nmol of compound and a volume of 150 µL. For biodistribution, the same procedure was applied except for different time points of 45 and 90 min. Hereafter the animals were euthanized by cervical dislocation and the organs (blood, spleen, pancreas, stomach, liver, kidneys, heart, lung, muscle, femur) were removed and weighed. The activity of the samples was measured in a gamma counter and the results were calculated as a percentage of injected dose per gram tissue (%ID/g).

[3] = system: A. fumigatus (ATCC 46645); assay type: cell-based, Aspergillus fumigatus; details: AMM
Description: (§1) Susceptibility tests were performed according to CLSI guidelines with slight modifications. In brief, 96-well plates (Greiner Bio-One GmbH) were prepared with 100 μL of 2 × AMM (Aspergillus minimal medium) or 0.2 × Potato Dextrose Broth (PDB) containing 3 × 10^4 spores of A. fumigatus (ATCC 46645) per well. An amount of 100μL antifungal, dissolved in water, was added to get a final concentration of 1 × AMM/0.1 × PDB medium and antifungal concentration ranging from 0.031–16 μg/mL.

[4] = system: A. fumigatus (ATCC 46645); assay type: cell-based, Aspergillus fumigatus
Description: as §1

A. fumigatus [5] = system: A. fumigatus; design: method as in PMID 26956772; details: 24 h, 37 °C, 0.1 × Vogel's medium; cited from earlier work
A. fumigatus [6] = system: A. fumigatus; design: method as in PMID 31405865; details: RPMI medium, 48 h; cited from earlier work
[7] = Biodistribution Intestine 45 min
[8] = Biodistribution Intestine 90 min
[9] = Biodistribution Pancreas 45 min
[10] = Biodistribution Pancreas 90 min

Row | Compound | logD [1] | Uptake into A. fumigatus hyphae normalized to uptake of [68Ga]Ga-TAFC (A. fumigatus [2]) [%] | tissue uptake at 0.75 h (in vivo; Biodistribution Blood 45 min) [%ID/g] | tissue uptake at 1.5 h (in vivo; Biodistribution Blood 90 min) [%ID/g] | tissue uptake at 0.75 h (in vivo; Biodistribution Femur 45 min) [%ID/g] | tissue uptake at 1.5 h (in vivo; Biodistribution Femur 90 min) [%ID/g] | tissue uptake at 0.75 h (in vivo; Biodistribution Heart 45 min) [%ID/g] | tissue uptake at 1.5 h (in vivo; Biodistribution Heart 90 min) [%ID/g] | tissue uptake at 0.75 h (in vivo; [7]) [%ID/g] | tissue uptake at 1.5 h (in vivo; [8]) [%ID/g] | tissue uptake at 0.75 h (in vivo; Biodistribution Kidneys 45 min) [%ID/g] | tissue uptake at 1.5 h (in vivo; Biodistribution Kidneys 90 min) [%ID/g] | tissue uptake at 0.75 h (in vivo; Biodistribution Liver 45 min) [%ID/g] | tissue uptake at 1.5 h (in vivo; Biodistribution Liver 90 min) [%ID/g] | tissue uptake at 0.75 h (in vivo; Biodistribution Lung 45 min) [%ID/g] | tissue uptake at 1.5 h (in vivo; Biodistribution Lung 90 min) [%ID/g] | tissue uptake at 0.75 h (in vivo; Biodistribution Muscle 45 min) [%ID/g] | tissue uptake at 1.5 h (in vivo; Biodistribution Muscle 90 min) [%ID/g] | tissue uptake at 0.75 h (in vivo; [9]) [%ID/g] | tissue uptake at 1.5 h (in vivo; [10]) [%ID/g] | other results
1 | CC(=O)N[C@@H]1CCCN(O)C(=O)/C=C(/C)CCOC(=O)[C@H](NC(=O)CCC(=O)N[C@H](CCCNC(=N)N)C(=O)N[C@H](CCCCN)C(=O)N[C@H](CCCCN)C(=O)N[C@H](Cc2c[nH]c3ccccc23)C(=O)N[C@H](Cc2ccccc2)C(=O)N[C@H](Cc2c[nH]c3ccccc23)C(N)=O)CCCN(O)C(=O)/C=C(/C)CCOC(=O)[C@H](NC(C)=O)CCCN(O)C(=O)/C=C(/C)CCOC1=O (stereo in doubt) [[^68Ga]Ga-DAFC-D-PAF26, metal not drawn] | -3.35 ± 0.16 | 137 | 1.08 ± 0.12 | 0.4 ± 0.04 | 1.47 ± 0.09 | 1.11 ± 0.16 | 0.76 ± 0.02 | 0.6 ± 0.23 | 0.63 ± 0.02 | 0.56 ± 0.03 | 150 ± 18 | 158 ± 25.6 | 20.8 ± 0.58 | 23 ± 0.89 | 2.16 ± 0.19 | 1.31 ± 0.23 | 0.42 ± 0.18 | 0.28 ± 0.1 | 0.41 ± 0.02 | 0.26 ± 0.03 | tissue uptake (in vivo): 150 %ID/g; tissue uptake at 0.75 h (in vivo; Biodistribution Spleen 45 min): 2.21 ± 0.15 %ID/g; tissue uptake at 1.5 h (in vivo; Biodistribution Spleen 90 min): 1.97 ± 0.21 %ID/g; tissue uptake at 0.75 h (in vivo; Biodistribution Stomach 45 min): 0.45 ± 0.17 %ID/g; tissue uptake at 1.5 h (in vivo; Biodistribution Stomach 90 min): 0.35 ± 0.03 %ID/g
2 | CC(=O)NC1CCCN(O)C(=O)/C=C(/C)CCOC(=O)C(NC(=O)[C@@H](Cc2ccccc2)NC(=O)[C@H](CC(C)C)NC(=O)[C@H](CC(N)=O)NC(C)=O)CCCN(O)C(=O)/C=C(/C)CCOC(=O)C(NC(C)=O)CCCN(O)C(=O)/C=C(/C)CCOC1=O (stereo in doubt) [[^68Ga]Ga-DAFC-NLF-Ac, metal not drawn] | -0.8 ± 0.08 | 35 | 0.46 ± 0.1 | 0.13 ± 0.1 | 0.16 ± 0.05 | 0.59 ± 0.5 | 0.22 ± 0.02 | 0.12 ± 0.11 | 3.09 ± 0.03 | 4.85 ± 1.78 | 35.7 ± 1.73 | 39.9 ± 2.66 | 0.85 ± 0.51 | 0.44 ± 0.05 | 0.62 ± 0.01 | 0.32 ± 0.06 | 0.18 ± 0.08 | 0.17 ± 0.07 | 0.21 ± 0.06 | 0.1 ± 0.06 | tissue uptake (in vivo): 36 %ID/g; tissue uptake at 0.75 h (in vivo; Biodistribution Spleen 45 min): 0.35 ± 0.1 %ID/g; tissue uptake at 1.5 h (in vivo; Biodistribution Spleen 90 min): 0.24 ± 0.07 %ID/g; tissue uptake at 0.75 h (in vivo; Biodistribution Stomach 45 min): 0.69 ± 0.31 %ID/g; tissue uptake at 1.5 h (in vivo; Biodistribution Stomach 90 min): 2.04 ± 0.74 %ID/g
3 | CC(=O)N[C@@H]1CCCN(O)C(=O)/C=C(/C)CCOC(=O)[C@H](NC(=O)CCC(=O)N[C@@H](CC(N)=O)C(=O)N[C@@H](CC(C)C)C(=O)N[C@H](Cc2ccccc2)C(=O)O)CCCN(O)C(=O)/C=C(/C)CCOC(=O)[C@H](NC(C)=O)CCCN(O)C(=O)/C=C(/C)CCOC1=O (stereo in doubt) [[^68Ga]Ga-DAFC-succ-NLF, metal not drawn] | -2.84 ± 0.17 | 13 | 0.41 ± 0.14 | 0.05 ± 0.03 | 1.76 ± 0.17 | 0.31 ± 0.13 | 0.18 ± 0.09 | 0.05 ± 0.02 | 0.4 ± 0.1 | 0.36 ± 0.07 | 3.27 ± 0.61 | 2.93 ± 0.38 | 0.37 ± 0.07 | 0.3 ± 0.05 | 0.61 ± 0.14 | 0.21 ± 0.05 | 0.08 ± 0.01 | 0.11 ± 0.14 | 0.14 ± 0.05 | 0.06 ± 0.02 | tissue uptake at 0.75 h (in vivo; Biodistribution Spleen 45 min): 0.23 ± 0.04 %ID/g; tissue uptake at 1.5 h (in vivo; Biodistribution Spleen 90 min): 0.19 ± 0.03 %ID/g; tissue uptake at 0.75 h (in vivo; Biodistribution Stomach 45 min): 0.19 ± 0.09 %ID/g; tissue uptake at 1.5 h (in vivo; Biodistribution Stomach 90 min): 0.11 ± 0.01 %ID/g
4 | N=C(N)NCCC[C@@H](N)C(=O)N[C@H](CCCCN)C(=O)N[C@H](CCCCN)C(=O)N[C@H](Cc1c[nH]c2ccccc12)C(=O)N[C@H](Cc1ccccc1)C(=O)N[C@H](Cc1c[nH]c2ccccc12)C(N)=O [H2N-D-PAF26-NH2] (H-[dR][dK][dK][dW][dF][dW]-NH2) | – | – | – | – | – | – | – | – | – | – | – | – | – | – | – | – | – | – | – | – | Antifungal activity (in words) ([3]; 0.031–16 µg/mL tested): no inhibition could be observed; MIC 24 h ([3]; 37 °C, 24 h): >16 µg/mL; MIC 48 h ([3]; 37 °C, 48 h): >16 µg/mL; MIC 24 h ([4]; 0.1 × PDB, 37 °C, 24 h): 8 µg/mL (≈ 8.43 µM); MIC 48 h ([4]; 0.1 × PDB, 37 °C, 48 h): 8 µg/mL; MIC / growth inhibition ([4]; 0.1 × PDB, incubation time not given): 8 µg/mL (≈ 8.43 µM); MIC 48 h ([4]; ATCC 46645, 48 h): 8.4 µM; IC50 (A. fumigatus [5]): 8 µM
5 | CC(=O)N([O-])CCC[C@@H]1NC(=O)[C@H](CCCN([O-])C(C)=O)NC(=O)[C@H](CCCN([O-])C(C)=O)NC(=O)[C@@H](Cc2ccccc2)NC(=O)[C@H](CC(C)C)NC(=O)[C@H](CC(N)=O)NC1=O.[Al+3] [VL-2397] (cyclo(L[dF][Orn(N5-OH,N5-Ac)][Orn(N5-OH,N5-Ac)][Orn(N5-OH,N5-Ac)]N)) | – | – | – | – | – | – | – | – | – | – | – | – | – | – | – | – | – | – | – | – | MIC (A. fumigatus [6]): 1 µg/mL
